Assay results reported in US20210277110A1 (Janssen / Centocor, published 2021).
Like-named read-outs stand apart in the source and are kept apart here.

T1: Extracellular domain of cyno PD1 (cPD1-ECD) (Macaca fascicularis (cynomolgus))
T1 construct: Expressed with a hexahistidine tag or as Fc fusion; also called cynoPD1-ECD; cynoPD-1-ECD
T1 chain: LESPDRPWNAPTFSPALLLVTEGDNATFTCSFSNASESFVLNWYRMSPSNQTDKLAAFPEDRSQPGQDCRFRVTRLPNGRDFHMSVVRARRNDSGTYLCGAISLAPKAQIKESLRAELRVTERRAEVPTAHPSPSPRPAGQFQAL


Key:
[1] = target: T2, Extracellular domain of human PD1 (huPD1-ECD) (human, UniProt Q15116 25-169, biotinylated in the ligand inhibition assay (sites not given)); assay: MSD ligand inhibition, competitor coated cynoPDL1-ECD
T2 construct: Expressed with a hexahistidine tag or as Fc fusion; also called biotinylated PD-1
T2 sequence (Q15116 25-169 limits assumed): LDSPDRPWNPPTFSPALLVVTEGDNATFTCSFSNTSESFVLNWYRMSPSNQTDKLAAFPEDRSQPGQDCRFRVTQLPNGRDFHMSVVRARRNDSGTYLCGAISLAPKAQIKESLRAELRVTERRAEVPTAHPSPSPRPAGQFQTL

[2] = target: T1, Extracellular domain of cyno PD1 …; assay: SPR ProteOn, cynoPD1-ECD; RANGE high replicate
Experimental: (§1) Affinity measurements using Surface Plasmon Resonance (SPR) were performed using a ProteOn XPR36 system. A biosensor surface was prepared by coupling a mixture of anti-IgG Fc modified alginate polymer layer surface of a GLC chip using the manufacturer instructions for amine-coupling chemistry. […] The collected data were processed and fitted to a Langmuir 1:1 binding model. The result for each mAb was reported in the format of kₒₙ (On-rate), koff (Off-rate) and KD (equilibrium dissociation constant).
(§2) STDEV were calculated for 3 or more replicates generated for human and cyno proteins. If less than 3 replicates were calculated, RANGE was indicated. RANGE is defined as the low and high values for the replicates tested. For samples in the Table 10 or Table 11 without value indicated in RANGE or STDEV, only one experiment was performed.

[3] = target: T1, Extracellular domain of cyno PD1 …; assay: SPR ProteOn, cynoPD1-ECD; RANGE high replicate; RANGE high replicate
Experimental: as §1, §2

[4] = target: T2, Extracellular domain of human PD1 …; assay: SPR ProteOn, captured mAb, huPD1-ECD analyte
[5] = target: T1, Extracellular domain of cyno PD1 …; assay: SPR ProteOn, captured mAb, cynoPD1-ECD analyte
Experimental: as §1, §2

[6] = target: T3, Full length human PD1 (huPD1) on cells (human, UniProt Q15116 25-288); assay: flow cytometry, PHA-stimulated Jurkat cells
T3 construct: on T cells of human donors in the MLR and CMV assays (functional); also called PD-1 on Jurkat cells
T3 sequence (Q15116 25-288 limits assumed): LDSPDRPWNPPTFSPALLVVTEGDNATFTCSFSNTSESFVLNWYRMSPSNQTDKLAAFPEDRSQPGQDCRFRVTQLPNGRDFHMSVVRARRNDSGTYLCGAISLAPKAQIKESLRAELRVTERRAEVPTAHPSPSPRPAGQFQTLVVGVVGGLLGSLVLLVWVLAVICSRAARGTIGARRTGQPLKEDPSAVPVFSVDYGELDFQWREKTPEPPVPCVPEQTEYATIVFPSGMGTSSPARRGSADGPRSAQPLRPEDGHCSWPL
Experimental: Jurkat cells were stimulated overnight with 20 ng/ml of PHA, harvested, washed, and checked for viability. The cells were then incubated at 6-10° C. for 45-60 minutes with various concentrations of test antibodies, washed and incubated at 6-10° C. for 45-60 minutes with FITC-labeled goat anti-human IgG. The cells were washed and fixed with BD Cytofix, refrigerated overnight and analyzed on a MACSQuant flow cytometer. The percentage of PD-1 positive cells at each antibody concentration was plotted vs log of the antibody concentration and EC₅₀ values were generated in Prism.

[7] = target: T1, Extracellular domain of cyno PD1 …; assay: SPR ProteOn, cynoPD1-ECD; RANGE low replicate
Experimental: as §1, §2

[8] = target: T1, Extracellular domain of cyno PD1 …; assay: SPR ProteOn, captured mAb, cynoPD1-ECD analyte
[9] = target: T2, Extracellular domain of human PD1 …; assay: SPR ProteOn, captured mAb, huPD1-ECD analyte; remark: listed apart in the source
Experimental: as §1
STDEV were calculated for 3 or more replicates generated for human and cyno proteins. If less than 3 replicates were calculated, RANGE is indicated. RANGE is defined as the low and high values for the replicates tested. For samples without RANGE or STDEV, only one experiment was performed

Row | Binder | percentage ligand not blocked at 1 µg/ml [1] | percentage ligand not blocked at 10 µg/ml [1] | Kd [2] | koff [3] | kon [3] | Kd [4] | koff [4] | kon [4] | Kd [5] | koff [5] | kon [5] | EC50 [6] | Kd [7] | koff [7] | kon [7] | Kd [8] | koff [8] | kon [8] | Kd [9] | koff [9] | further results
1 | PD1B177 (antibody, V domains shown, Tested as IgG2sigma; also called PD1H164/PH9L3) VH: QVQLVQSGAEVKKPGSSVKVSCKASGGTFSDYVISWVRQAPGQGLEWMGGIIPIYGTANYAQKFQGRVTITADESTSTAYMELSSLRSEDTAVYYCARGTLDRTGHLDYWGQGTLVTVSS VL: EIVLTQSPATLSLSPGERATLSCRASQSVSSYLAWYQQKPGQAPRLLIYDASNRATGIPARFSGSGSGTDFTLTISSLEPEDFAVYYCQQRSNWPLTFGQGTKVEIK | 7% | 8% | 6.9 nM | 0.00193 s⁻¹ | 304000 M⁻¹ s⁻¹ | 5 nM | 0.00257 s⁻¹ | 515000 M⁻¹ s⁻¹ | 6.47 nM | 0.00189 s⁻¹ | 292000 M⁻¹ s⁻¹ | 0.05 µg/mL | 6.1 nM | 0.00184 s⁻¹ | 280000 M⁻¹ s⁻¹ |  |  |  |  |  | 
2 | PD1B198 (antibody, V domains shown, also called PD1H163/PD1L187) VH: QVQLVQSGAEVKKPGSSVKVSCKASGGTFKSYVIHWVRQAPGQGLEWMGGIIPIFGTANYAQKFQGRVTITADESTSTAYMELSSLRSEDTAVYYCARGYVRATGMLDYWGQGTLVTVSS VL: EIVLTQSPATLSLSPGERATLSCRASQSVSSYLAWYQQKPGQAPRLLIEDASSRATGIPARFSGSGSGTDFTLTISSLEPEDFAVYYCQQRAEWPLTFGQGTKVEIK |  |  |  |  |  |  |  |  |  |  |  |  |  |  |  | 11.2 nM | 0.00416 s⁻¹ | 372000 M⁻¹ s⁻¹ | 10.4 nM | 0.00934 s⁻¹ | kon [9]: 895000 M⁻¹ s⁻¹
3 | PD1B197 (antibody, V domains shown, also called PD1H163/PD1L185) VH: QVQLVQSGAEVKKPGSSVKVSCKASGGTFKSYVIHWVRQAPGQGLEWMGGIIPIFGTANYAQKFQGRVTITADESTSTAYMELSSLRSEDTAVYYCARGYVRATGMLDYWGQGTLVTVSS VL: EIVLTQSPATLSLSPGERATLSCRASQSVSNYLAWYQQKPGQAPRLLIYDASNRATGIPARFSGSGSGTDFTLTISSLEPEDFAVYYCQQRAYWPLTFGQGTKVEIK |  |  |  |  |  |  |  |  |  |  |  |  |  |  |  | 4.6 nM | 0.00126 s⁻¹ | 275000 M⁻¹ s⁻¹ | 4.9 nM | 0.00324 s⁻¹ | kon [9]: 658000 M⁻¹ s⁻¹
4 | PD1B194 (antibody, V domains shown, also called PD1H170/PD1L71) VH: QVQLVQSGAEVKKPGSSVKVSCKASGGTFSSYAISWVRQAPGQGLEWMGGIIPIFDTANYAQKFQGRVTITADESTSTAYMELSSLRSEDTAVYYCARPGLAAAYDTGSLDYWGQGTLVTVSS VL: EIVLTQSPATLSLSPGERATLSCRASQSVRSYLAWYQQKPGQAPRLLIYDASYRATGIPARFSGSGSGTDFTLTISSLEPEDFAVYYCQQRDYWPLTFGQGTKVEIK |  |  |  |  |  |  |  |  |  |  |  |  |  |  |  | 0.6 nM | 0.000193 s⁻¹ | 322000 M⁻¹ s⁻¹ | 1.07 nM | 0.00096 s⁻¹ | kon [9]: 897000 M⁻¹ s⁻¹
5 | PD1B114 (antibody, human IgG2, kappa, V domains shown, IgG2sigma/kappa; also called PD1H24/PH9L3) VH: QVQLVQSGAEVKKPGSSVKVSCKASGGTFSSYAISWVRQAPGQGLEWMGGIIPIFGTANYAQKFQGRVTITADESTSTAYMELSSLRSEDTAVYYCARPGLAAAYDTGNLDYWGQGTLVTVSS VL: EIVLTQSPATLSLSPGERATLSCRASQSVSSYLAWYQQKPGQAPRLLIYDASNRATGIPARFSGSGSGTDFTLTISSLEPEDFAVYYCQQRSNWPLTFGQGTKVEIKR | 8% | 13% |  |  |  | 54.1 nM | 0.0279 s⁻¹ | 517000 M⁻¹ s⁻¹ | 81.5 nM | 0.0239 s⁻¹ | 294000 M⁻¹ s⁻¹ | 0.47 µg/mL |  |  |  |  |  |  |  |  | 

Further lines, with some results ahead:

Row | percentage ligand not blocked at 1 µg/ml [1] | percentage ligand not blocked at 10 µg/ml [1] | Kd [2] | koff [3] | kon [3] | Kd [4] | koff [4] | kon [4] | Kd [5] | koff [5] | kon [5] | EC50 [6] | Kd [7] | koff [7] | kon [7] | Kd [8] | koff [8] | kon [8] | Kd [9] | koff [9] | Binder | further results
6 | 7% | 5% | 8.4 nM | 0.00185 s⁻¹ | 370000 M⁻¹ s⁻¹ | 5.2 nM | 0.00278 s⁻¹ | 535000 M⁻¹ s⁻¹ | 5.32 nM | 0.00157 s⁻¹ | 294000 M⁻¹ s⁻¹ | 0.09 µg/mL | 3.5 nM | 0.00128 s⁻¹ | 220000 M⁻¹ s⁻¹ |  |  |  |  |  | PD1B187 (antibody, V domains shown, Tested as IgG2sigma; also called PD1H3/PD1L148) VH: QVQLVQSGAEVKKPGSSVKVSCKASGGTFSSYAISWVRQAPGQGLEWMGGIIPIFGTANYAQKFQGRVTITADESTSTAYMELSSLRSEDTAVYYCARPGLAAAYDTGSLDYWGQGTLVTVSS VL: EIVLTQSPATLSLSPGERATLSCRASQSVRSYLAWYQQKPGQAPRLLIYDASNRATGIPARFSGSGSGTDFTLTISSLEPEDFAVYYCQQRNYWPLTFGQGTKVEIK | 
7 | 4% | 3% | 5.3 nM |  |  | 6.87 nM | 0.00371 s⁻¹ | 540000 M⁻¹ s⁻¹ | 5.23 nM | 0.00166 s⁻¹ | 317000 M⁻¹ s⁻¹ | 0.08 µg/mL | 5.1 nM | 0.00163 s⁻¹ | 316000 M⁻¹ s⁻¹ |  |  |  |  |  | PD1B160 (antibody, human IgG2, kappa, V domains shown, IgG2sigma/kappa; VH 42, VL 51; also called PD1H131/PD1L101) VH: QVQLVQSGAEVKKPGSSVKVSCKASGGTFSSYAISWVRQAPGQGLEWMGGIIPIFDTANYAQKFQGRVTITADESTSTAYMELSSLRSEDTAVYYCARPGLAAAYDTGNLDYWGQGTLVTVSS VL: EIVLTQSPATLSLSPGERATLSCRASQSVDSYLAWYQQKPGQAPRLLIKDASDRATGIPARFSGSGSGTDFTLTISSLEPEDFAVYYCQQRGNWPLTFGQGTKVEIKR | koff [2]: 0.00168 s⁻¹; kon [2]: 317000 M⁻¹ s⁻¹
8 | 4% | 4% | 14.1 nM | 0.00292 s⁻¹ | 268000 M⁻¹ s⁻¹ | 11.4 nM | 0.00509 s⁻¹ | 445000 M⁻¹ s⁻¹ | 11.5 nM | 0.00274 s⁻¹ | 238000 M⁻¹ s⁻¹ | 0.08 µg/mL | 9.5 nM | 0.00255 s⁻¹ | 208000 M⁻¹ s⁻¹ |  |  |  |  |  | PD1B184 (antibody, human IgG2, kappa, V domains shown, IgG2sigma/kappa; VH 43, VL 50; also called PD1H3/PD1L128) VH: QVQLVQSGAEVKKPGSSVKVSCKASGGTFSSYAISWVRQAPGQGLEWMGGIIPIFGTANYAQKFQGRVTITADESTSTAYMELSSLRSEDTAVYYCARPGLAAAYDTGSLDYWGQGTLVTVSS VL: EIVLTQSPATLSLSPGERATLSCRASQSVRNYLAWYQQKPGQAPRLLIHDASNRATGIPARFSGSGSGTDFTLTISSLEPEDFAVYYCQQRNYWPLTFGQGTKVEIKR | 
9 | 5% | 5% | 28.8 nM | 0.00876 s⁻¹ | 337000 M⁻¹ s⁻¹ | 16 nM | 0.00844 s⁻¹ | 527000 M⁻¹ s⁻¹ | 26.3 nM | 0.00839 s⁻¹ | 320000 M⁻¹ s⁻¹ | 0.08 µg/mL | 23.9 nM | 0.00801 s⁻¹ | 304000 M⁻¹ s⁻¹ |  |  |  |  |  | PD1B183 (antibody, human IgG2, kappa, V domains shown, IgG2sigma/kappa; VH 43, VL 54; also called PD1H3/PD1L109) VH: QVQLVQSGAEVKKPGSSVKVSCKASGGTFSSYAISWVRQAPGQGLEWMGGIIPIFGTANYAQKFQGRVTITADESTSTAYMELSSLRSEDTAVYYCARPGLAAAYDTGSLDYWGQGTLVTVSS VL: EIVLTQSPATLSLSPGERATLSCRASQSVSSYLAWYQQKPGQAPRLLIKDASNRATGIPARFSGSGSGTDFTLTISSLEPEDFAVYYCQQRGYWPLTFGQGTKVEIKR | 
10 | 8% | 5% | 34.1 nM |  | 343000 M⁻¹ s⁻¹ | 13.1 nM | 0.00765 s⁻¹ | 585000 M⁻¹ s⁻¹ | 30.5 nM | 0.00947 s⁻¹ | 311000 M⁻¹ s⁻¹ | 0.09 µg/mL | 27.5 nM | 0.00938 s⁻¹ | 280000 M⁻¹ s⁻¹ |  |  |  |  |  | PD1B185 (antibody, human IgG2, kappa, V domains shown, IgG2sigma/kappa; VH 43, VL 55; also called PD1H3/PD1L132) VH: QVQLVQSGAEVKKPGSSVKVSCKASGGTFSSYAISWVRQAPGQGLEWMGGIIPIFGTANYAQKFQGRVTITADESTSTAYMELSSLRSEDTAVYYCARPGLAAAYDTGSLDYWGQGTLVTVSS VL: EIVLTQSPATLSLSPGERATLSCRASQSVRNYLAWYQQKPGQAPRLLIYDASDRATGIPARFSGSGSGTDFTLTISSLEPEDFAVYYCQQRWNWPLTFGQGTKVEIKR | koff [2]: 0.00955 s⁻¹
